From patent US20140134647A1 (LA JOLLA INSTITUTE FOR ALLERGY AND IMMUNOLOGY, published 2014)
Several values for one entry are separate records, joined by “and”; a condition that tells them apart may be missing. Equal values may be shown once. Read-outs that look alike come from different tables or passages of the source.

Key:
[1] = biological target: TRAIL-R2-Fc double mutant L110A/L114A (human) (UniProt O14763); test: SPR, alanine mutant
[2] = biological target: TRAIL-R2-Fc (human TRAIL-R2 aa 58-184, thrombin site, Fc of human IgG1), wild type (human) (UniProt O14763); test: SPR; TRAIL-R2-Fc captured on anti-human Fc chip, UL141 analyte
[3] = biological target: TRAIL-R2-Fc mutant D148A (human) (UniProt O14763); test: SPR; TRAIL-R2-Fc mutant captured on anti-human Fc chip, UL141 analyte
[4] = biological target: TRAIL-R2-Fc triple mutant M152A/R154A/K155A (human) (UniProt O14763); test: as above
[5] = biological target: TRAIL-R2-Fc mutant F112A (human) (UniProt O14763); test: as above
[6] = biological target: TRAIL-R2-Fc mutant M152A (human) (UniProt O14763); test: as above
[7] = biological target: TRAIL-R2-Fc mutant V167A (human) (UniProt O14763); test: as above
[8] = biological target: TRAIL-R2-Fc double mutant E78A/D109A (human) (UniProt O14763); test: as above
[9] = biological target: TRAIL-R2-Fc mutant K155A (human) (UniProt O14763); test: as above
[10] = biological target: TRAIL-R2-Fc mutant P150A (human) (UniProt O14763); test: as above
[11] = biological target: TRAIL-R2-Fc double mutant L110A/L114A (human) (UniProt O14763); test: as above
[12] = biological target: TRAIL-R2-Fc mutant R154A (human) (UniProt O14763); test: as above
[13] = biological target: CD155-Fc (CD155/PVR ectodomain Fc fusion) (human) (UniProt P15151); test: SPR, kinetic 1:1 fit; CD155-Fc immobilized, UL141 analyte
[14] = biological target: TRAIL-R1-Fc (human TRAIL-R1/DR4 ectodomain Fc fusion) (human) (UniProt O00220); test: SPR, kinetic 1:1 fit; TRAIL-R1-Fc immobilized, UL141 analyte
[15] = biological target: TRAIL-R1-Fc (human TRAIL-R1/DR4 ectodomain Fc fusion) (human) (UniProt O00220); test: SPR, steady-state (KDeq); TRAIL-R1-Fc immobilized, UL141 analyte
[16] = biological target: TRAIL-R2-Fc (human TRAIL-R2 aa 58-184, thrombin site, Fc of human IgG1), wild type (human) (UniProt O14763); test: SPR, KDave; TRAIL-R2-Fc immobilized, UL141 analyte
[17] = biological target: TRAIL-R2-Fc (human TRAIL-R2 aa 58-184, thrombin site, Fc of human IgG1), wild type (human) (UniProt O14763); test: SPR, kinetic 1:1 fit; TRAIL-R2-Fc immobilized, UL141 analyte
[18] = biological target: TRAIL-R1-Fc (human TRAIL-R1/DR4 ectodomain Fc fusion) (human) (UniProt O00220); test: SPR, average of KDeq and KD (KDave); TRAIL-R1-Fc immobilized, UL141 analyte
[19] = biological target: TRAIL-R2-Fc mutant D148A (human) (UniProt O14763)
[20] = biological target: TRAIL-R2-Fc mutant F112A (human) (UniProt O14763)
[21] = biological target: TRAIL-R2-Fc mutant V167A (human) (UniProt O14763)
[22] = biological target: TRAIL-R2-Fc double mutant L110A/L114A (human) (UniProt O14763)
[23] = biological target: TRAIL-R2-Fc (human TRAIL-R2 aa 58-184, thrombin site, Fc of human IgG1), wild type (human) (UniProt O14763); test: SPR; TRAIL-R2-Fc immobilized, UL141 analyte
[24] = biological target: TRAIL-R1-Fc (human TRAIL-R1/DR4 ectodomain Fc fusion) (human) (UniProt O00220); test: SPR; TRAIL-R1-Fc immobilized, UL141 analyte
[25] = biological target: CD155-Fc (CD155/PVR ectodomain Fc fusion) (human) (UniProt P15151); test: SPR, KDave; CD155-Fc immobilized, UL141 analyte
[26] = biological target: CD155-Fc (CD155/PVR ectodomain Fc fusion) (human) (UniProt P15151); test: SPR; CD155-Fc immobilized, UL141 analyte
[27] = biological target: CD155-Fc (CD155/PVR ectodomain Fc fusion) (human) (UniProt P15151)
[28] = biological target: CD155-Fc (CD155/PVR ectodomain Fc fusion) (human) (UniProt P15151); test: SPR, KDave; CD155-Fc immobilized, pre-formed UL141-TRAIL-R2 complex analyte
[29] = biological target: CD155-Fc (CD155/PVR ectodomain Fc fusion) (human) (UniProt P15151); test: SPR; CD155-Fc immobilized, pre-formed UL141-TRAIL-R2 complex analyte
[30] = biological target: T1, TRAIL-R2 (DR5) ectodomain monomer, aa 58-184, without Fc (human, UniProt O14763 58-184); test: SPR, average of KDeq and KD (KDave); UL141-Fc immobilized, TRAIL-R2 analyte
T1 construct: range 58-184; also called monomeric TRAIL-R2; TRAIL-R2 monomer

[31] = biological target: T1, TRAIL-R2 (DR5) ectodomain monomer, aa …; test: SPR; UL141-Fc immobilized, TRAIL-R2 analyte
[32] = biological target: T1, TRAIL-R2 (DR5) ectodomain monomer, aa …; test: SPR, kinetic 1:1 fit; UL141-Fc immobilized, TRAIL-R2 analyte
[33] = biological target: T2, mouse TRAIL-R2:Fc (extracellular domain of mouse TRAIL-R2 fused to human IgG constant domain) (mouse; human, UniProt Q9QZM4 53-180; P01857 104-330 = IgG part); test: ELISA-based assay
T2 construct: extracellular domain;domain: human IgG VH constant domain; also called mTRAIL-R2:Fc

[34] = biological target: T1, TRAIL-R2 (DR5) ectodomain monomer, aa …; test: SPR, steady-state (KDeq); UL141-Fc immobilized, TRAIL-R2 analyte

Sequence of TRAIL-R2-Fc mutant V167A (human) (O14763 other isoform, or with tags, fused parts or gaps V167A V167A limits assumed): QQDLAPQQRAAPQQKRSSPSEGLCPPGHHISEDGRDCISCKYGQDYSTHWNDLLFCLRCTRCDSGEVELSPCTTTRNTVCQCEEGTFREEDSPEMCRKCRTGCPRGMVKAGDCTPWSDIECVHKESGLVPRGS
Sequence of TRAIL-R2-Fc double mutant L110A/L114A (human) (O14763 other isoform, or with tags, fused parts or gaps L110A L114A L110A L114A limits assumed): as the sequence (O14763 other isoform, or with tags, fused parts or gaps V167A V167A limits assumed) above, with L53A, L57A, A110V counted along it
Sequence of TRAIL-R2-Fc mutant F112A (human) (O14763 other isoform, or with tags, fused parts or gaps F112A F112A limits assumed): as the sequence (O14763 other isoform, or with tags, fused parts or gaps V167A V167A limits assumed) above, with F55A, A110V counted along it
Sequence of TRAIL-R2-Fc mutant K155A (human) (O14763 other isoform, or with tags, fused parts or gaps K155A K155A limits assumed): as the sequence (O14763 other isoform, or with tags, fused parts or gaps V167A V167A limits assumed) above, with K98A, A110V counted along it
Sequence of TRAIL-R2-Fc mutant D148A (human) (O14763 other isoform, or with tags, fused parts or gaps D148A D148A limits assumed): as the sequence (O14763 other isoform, or with tags, fused parts or gaps V167A V167A limits assumed) above, with D91A, A110V counted along it
Sequence of TRAIL-R2-Fc mutant R154A (human) (O14763 other isoform, or with tags, fused parts or gaps R154A R154A limits assumed): as the sequence (O14763 other isoform, or with tags, fused parts or gaps V167A V167A limits assumed) above, with R97A, A110V counted along it
Sequence of TRAIL-R2-Fc double mutant E78A/D109A (human) (O14763 other isoform, or with tags, fused parts or gaps E78A D109A E78A D109A limits assumed): as the sequence (O14763 other isoform, or with tags, fused parts or gaps V167A V167A limits assumed) above, with E21A, D52A, A110V counted along it
T1 sequence (O14763 58-184 limits assumed): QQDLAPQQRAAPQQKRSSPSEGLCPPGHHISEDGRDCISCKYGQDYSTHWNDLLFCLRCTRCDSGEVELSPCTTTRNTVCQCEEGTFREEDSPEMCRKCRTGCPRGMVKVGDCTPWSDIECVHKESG
Sequence of TRAIL-R2-Fc triple mutant M152A/R154A/K155A (human) (O14763 other isoform, or with tags, fused parts or gaps M152A R154A K155A M152A R154A K155A limits assumed): as the sequence (O14763 other isoform, or with tags, fused parts or gaps V167A V167A limits assumed) above, with M95A, R97A, K98A, A110V counted along it
Sequence of TRAIL-R2-Fc (human TRAIL-R2 aa 58-184, thrombin site, Fc of human IgG1), wild type (human) (O14763 other isoform, or with tags, fused parts or gaps limits assumed): as the sequence (O14763 other isoform, or with tags, fused parts or gaps V167A V167A limits assumed) above, with A110V counted along it
Sequence of CD155-Fc (CD155/PVR ectodomain Fc fusion) (human) (P15151 21-343 limits assumed): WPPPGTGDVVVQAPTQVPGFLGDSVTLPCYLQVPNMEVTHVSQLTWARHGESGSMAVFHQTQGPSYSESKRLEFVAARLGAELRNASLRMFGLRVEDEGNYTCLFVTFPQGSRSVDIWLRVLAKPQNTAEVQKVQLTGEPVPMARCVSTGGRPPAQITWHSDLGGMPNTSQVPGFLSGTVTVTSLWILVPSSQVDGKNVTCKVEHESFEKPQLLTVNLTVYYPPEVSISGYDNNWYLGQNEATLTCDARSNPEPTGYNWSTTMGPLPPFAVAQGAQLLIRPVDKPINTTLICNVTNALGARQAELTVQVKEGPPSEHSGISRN
Sequence of TRAIL-R2-Fc mutant M152A (human) (O14763 other isoform, or with tags, fused parts or gaps M152A M152A limits assumed): as the sequence (O14763 other isoform, or with tags, fused parts or gaps V167A V167A limits assumed) above, with M95A, A110V counted along it
Sequence of TRAIL-R1-Fc (human TRAIL-R1/DR4 ectodomain Fc fusion) (human) (O00220 24-239): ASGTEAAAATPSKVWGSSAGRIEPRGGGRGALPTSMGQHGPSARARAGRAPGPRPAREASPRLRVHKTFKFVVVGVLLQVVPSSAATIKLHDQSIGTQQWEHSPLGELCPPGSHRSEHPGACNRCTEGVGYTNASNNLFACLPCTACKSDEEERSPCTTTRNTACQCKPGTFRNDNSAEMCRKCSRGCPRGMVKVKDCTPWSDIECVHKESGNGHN
Sequence of TRAIL-R2-Fc mutant P150A (human) (O14763 other isoform, or with tags, fused parts or gaps P150A P150A limits assumed): as the sequence (O14763 other isoform, or with tags, fused parts or gaps V167A V167A limits assumed) above, with P93A, A110V counted along it
T2 sequence (Q9QZM4 other isoform, or with tags, fused parts or gaps limits assumed): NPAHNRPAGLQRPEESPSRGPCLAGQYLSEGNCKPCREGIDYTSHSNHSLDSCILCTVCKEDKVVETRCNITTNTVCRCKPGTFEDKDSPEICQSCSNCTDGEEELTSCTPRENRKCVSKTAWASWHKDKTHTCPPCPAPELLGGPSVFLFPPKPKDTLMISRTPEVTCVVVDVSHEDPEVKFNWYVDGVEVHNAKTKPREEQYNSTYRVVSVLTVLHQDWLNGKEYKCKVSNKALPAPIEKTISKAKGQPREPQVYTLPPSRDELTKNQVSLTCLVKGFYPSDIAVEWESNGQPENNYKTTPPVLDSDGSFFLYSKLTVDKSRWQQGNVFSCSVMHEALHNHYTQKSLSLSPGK

“UL141 ectodomain (HCMV FIX strain) with C-terminal poly-histidine tag (ligand)” was tested, and the fold decrease in binding affinity against wild-type [1] was 7 fold, the Kd [2] was 6 nM and 5.95 nM and the koff [2] was 7.21e-05 s⁻¹. It also gave a kon [2] of 12100 M⁻¹ s⁻¹, a Kd [3] of 55.3 nM and a fold lower binding than wild-type [3] of 10 fold. For the same molecule, the koff [3] was 0.0013 s⁻¹, the kon [3] was 23500 M⁻¹ s⁻¹ and the Kd [4] was 7.39 nM. It also gave a koff [4] of 0.00027 s⁻¹, a kon [4] of 36500 M⁻¹ s⁻¹ and a Kd [5] of 630 nM. The fold lower binding than wild-type [5] was 100 fold, the koff [5] was 0.00566 s⁻¹ and the kon [5] was 8980 M⁻¹ s⁻¹. For the same molecule, the Kd [6] was 7.49 nM, the koff [6] was 0.000382 s⁻¹ and the kon [6] was 51000 M⁻¹ s⁻¹. It also gave a Kd [7] of 15.5 nM, a fold lower binding than wild-type [7] of 2.5 fold and a koff [7] of 0.00048 s⁻¹. The kon [7] was 31000 M⁻¹ s⁻¹, the Kd [8] was 60.4 nM and the fold lower binding than wild-type [8] was 10 fold. It also gave a koff [8] of 0.00151 s⁻¹, a kon [8] of 25000 M⁻¹ s⁻¹ and a Kd [9] of 7.74 nM. For the same molecule, the koff [9] was 0.00038 s⁻¹, the kon [9] was 49100 M⁻¹ s⁻¹ and the Kd [10] was 8.32 nM. The koff [10] was 0.000391 s⁻¹, the kon [10] was 47000 M⁻¹ s⁻¹ and the Kd [11] was 42.7 nM. The fold lower binding than wild-type [11] was 10 fold, the koff [11] was 0.00064 s⁻¹ and the kon [11] was 15000 M⁻¹ s⁻¹. The Kd [12] was 6.26 nM, the koff [12] was 0.000243 s⁻¹ and the kon [12] was 38800 M⁻¹ s⁻¹. It also gave a Kd [13] of 1.97 nM, a Kd [14] of 2330 nM and a Kd [15] of 2.27 nM. The Kd [16] was 6 nM, the Kd [17] was 5.96 nM and the Kd [18] was 2300 nM. For the same molecule, the x-fold reduction in binding compared to wild type [19] was 9.2 fold, the x-fold reduction in binding compared to wild type [20] was 106 fold and the x-fold reduction in binding compared to wild type [21] was 2.6 fold. For the same molecule, the x-fold reduction in binding compared to wild type [22] was 7.2 fold, the koff [23] was 7.21e-05 s⁻¹ and the kon [23] was 12100 M⁻¹ s⁻¹. The koff [24] was 0.014 s⁻¹, the kon [24] was 6020 M⁻¹ s⁻¹ and the Kd [25] was 2 nM. The koff [26] was 0.000346 s⁻¹ and the kon [26] was 176000 M⁻¹ s⁻¹.

For “pre-formed UL141-TRAIL-R2 protein complex (from UniProt O14763 58-184)”, the Kd [27] was 2.19 nM, the Kd [28] was 2 nM and the koff [29] was 0.000333 s⁻¹. The kon [29] was 152000 M⁻¹ s⁻¹.

B1: UL141-Fc (UL141 ectodomain fused to the Fc region of human IgG1) (Fc fusion)
chain: DIAEKMWAENYETTSPAPVLVAEGEQVTIPCTVMTHSWPMVSIRARFCRSHDGSDELILDAVKGHRLMNGLQYRLPYATWNFSQLHLGQIFSLTFNVSTDTAGMYECVLRNYSHGLIMQRFVILTQLETLSRPDEPCCTPALGRYSLGDQIWSPTPWRLRNHDCGMYRGFQRNYFYIGRADAEDCWKPACPDEEPDRCWTVIQRYRLPGDCYRSQPHPPKFLPVTPAPPADIDTGMS
For B1, the Kd [30] was 20 nM, the koff [31] was 0.00564 s⁻¹ and the kon [31] was 264000 M⁻¹ s⁻¹. For the same molecule, the Kd [32] was 21.4 nM, the binding result [33] was “no binding” and the Kd [34] was 19.8 nM.
